Measurements as given in PMC12208167.

Tests used:
[1] = biological target: human neonatal Fc receptor (FcRn) (human) (UniProt P55899); test: SPR
[2] = biological target: murine neonatal Fc receptor (FcRn) (mouse | not stated) (UniProt Q61559); test: SPR
[3] = biological target: human neonatal Fc receptor (FcRn) (human) (UniProt P55899); test: ELISA
[4] = biological target: murine neonatal Fc receptor (FcRn) (mouse | not stated) (UniProt Q61559); test: ELISA

Row | Kd [1] [nM] | Kd [2] [nM] | EC50 [3] [nM] | EC50 [4] [nM] | Substance
1 | 1.3 to 2.8 | 0.2 to 0.4 |  |  | m66.6, human anti-MPER HIV monoclonal IgG1 (antibody)
2 |  |  | 1140 | 130 | B domain-deleted (BDD) FVIII (ReFacto AF) (natural protein)
